Source: patent US20180141989A1 (BOARD OF REGENTS OF THE UNIVERSITY OF OKLAHOMA, published 2018)
Where no end group is shown, it is not given here.

The binders below were run against MBP-RAMP2 ECD [L106R]-(GS)5-CLR ECD-H6 fusion protein (human) (UniProt O60895) (assay: FP competition vs FITC-AM W/W probe, purified ECD fusion).
Sequence of MBP-RAMP2 ECD [L106R]-(GS)5-CLR ECD-H6 fusion protein (human) (O60895 other isoform, or with tags, fused parts or gaps L106R L106R): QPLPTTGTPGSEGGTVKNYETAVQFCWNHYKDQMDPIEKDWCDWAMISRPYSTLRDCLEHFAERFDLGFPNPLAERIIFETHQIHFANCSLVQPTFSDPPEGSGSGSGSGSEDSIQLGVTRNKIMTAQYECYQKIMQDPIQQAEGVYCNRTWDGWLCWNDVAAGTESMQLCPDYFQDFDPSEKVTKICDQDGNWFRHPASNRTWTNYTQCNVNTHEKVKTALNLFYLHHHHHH

Row | Binder | Ki [nM] | pKI
1 | DKKNVAPRSKISPQGY-NH2 [AM(37-52)NH2 [D39K]] | 6100 | 5.22
2 | DKDNVAPRSLISPWGY-NH2 [AM(37-52)NH2 [K46L, Q50W]] | 1660 | 5.78
3 | DKDNVAPRWWISPWGF-NH2 [AM(37-52)NH2 [S45W, K46W, Q50W, Y52F]] | 16600 | 4.78
4 | DKFNVAPRSLISPWGY-NH2 [AM(37-52)NH2 [D39F, K46L, Q50W]] | 1830 | 5.74
5 | DKDNVAPRWLISPWGF-NH2 [AM(37-52)NH2 [S45W, K46L, Q50W, Y52F]] | 4070 | 5.39
6 | DKDNVAPRSLISPWGF-NH2 [AM(37-52)NH2 [K46L, Q50W, Y52F]] | 89100 | 4.05
7 | DKDNVAPRWMISPWGF-NH2 [AM(37-52)NH2 [S45W, K46M, Q50W, Y52F]] | 7760 | 5.11
8 | DKFNVAPRSLISPWGF-NH2 [AM(37-52)NH2 [D39F, K46L, Q50W, Y52F]] | 30300 | 4.55
9 | DKDNVAPRTWISPWGY-NH2 [AM(37-52)NH2[S45T, K46W, Q50W]] | 12500 | 4.9

What follows are binders tested against T1, MBP-RAMP1 ECD-(GS)5-CLR ECD-H6 fusion protein (human, UniProt O60894 24-111; Q16602 29-144) (assay: ratio of FP KI values at the two ECD complexes).
T1 construct: range 24-111;range 29-144; Tethered ECD fusion made in E. coli; used in the FP assay at 15 nM; also called MBP-hRAMP1.24-111-(Gly-Ser)5-hCLR.29-144-H6
Method: (§1) Fluorescence polarization peptide binding assay. […] The reactions (50 μL) were incubated for 2 hours at room temperature to reach equilibrium, and the anisotropy was measured in black half-area 96-well plates using a BMG LABTECH's POLARstar® Omega plate reader (Ortenberg, Germany). The reaction buffer was 50 mM HEPES, pH 7.5, 150 mM NaCl, 0.5 mg/ml fatty acid-free BSA, 0.5 mM EDTA, 0.5 mM maltose. KI values were calculated using nonlinear regression fitting of the competition curves to the exact analytical equations of Roehrl et al. (Biochemistry (2004) 43:16056-66) using GraphPad Prism 5.0 (GraphPad Software, San Diego Calif.).
(§2) The large size difference between the MBP-RAMP ECD-CLR ECD fusion proteins (˜65 kDa) and the probe (˜2.5 kDa) ensures a significant anisotropy difference between bound and free states of the probe. […] Kd values for the probe at each of the tethered ECD fusion proteins were determined in equilibrium saturation binding experiments (data not shown), and KI values were determined for unlabeled peptides in equilibrium competition experiments (Table 1; FIGS. 2-5). The data were analyzed according to exact analytical equations using non-linear regression curve fitting in GraphPad Prism 5.0 (GraphPad Software) via user-defined equations.

T1 sequence (O60894 other isoform, or with tags, fused parts or gaps limits assumed, form in doubt): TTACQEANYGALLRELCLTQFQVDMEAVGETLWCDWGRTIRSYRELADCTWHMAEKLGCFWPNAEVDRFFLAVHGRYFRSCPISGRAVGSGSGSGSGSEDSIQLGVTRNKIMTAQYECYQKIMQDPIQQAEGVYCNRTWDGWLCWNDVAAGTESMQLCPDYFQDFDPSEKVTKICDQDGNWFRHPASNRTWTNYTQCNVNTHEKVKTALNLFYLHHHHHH

Row | Binder | Receptor Selectivity (fold, over RAMP2-CLR ECD) [fold]
10 | DKDNVAPRSLISPWGY-NH2 [AM(37-52)NH2 [K46L, Q50W]] | 23
11 | DKDNVAPRWWISPWGF-NH2 [AM(37-52)NH2 [S45W, K46W, Q50W, Y52F]] | 692
12 | DKFNVAPRSLISPWGY-NH2 [AM(37-52)NH2 [D39F, K46L, Q50W]] | 22
13 | DKDNVAPRWLISPWGF-NH2 [AM(37-52)NH2 [S45W, K46L, Q50W, Y52F]] | 2130
14 | DKDNVAPRSLISPWGF-NH2 [AM(37-52)NH2 [K46L, Q50W, Y52F]] | 2820
15 | DKDNVAPRWMISPWGF-NH2 [AM(37-52)NH2 [S45W, K46M, Q50W, Y52F]] | 977
16 | DKFNVAPRSLISPWGF-NH2 [AM(37-52)NH2 [D39F, K46L, Q50W, Y52F]] | 1210
17 | DKDNVAPRTWISPWGY-NH2 [AM(37-52)NH2[S45T, K46W, Q50W]] | 28

The binders below were run against T1, MBP-RAMP1 ECD-(GS)5-CLR ECD-H6 fusion … (assay: FP competition vs FITC-AM W/W probe, purified ECD fusion).
Method: as §1, §2

Row | Binder | Ki [nM] | pKI
18 | DKDNVAPRSLISPWGY-NH2 [AM(37-52)NH2 [K46L, Q50W]] | 70.8 | 7.15
19 | DKDNVAPRWWISPWGF-NH2 [AM(37-52)NH2 [S45W, K46W, Q50W, Y52F]] | 24 | 7.62
20 | DKFNVAPRSLISPWGY-NH2 [AM(37-52)NH2 [D39F, K46L, Q50W]] | 82.2 | 7.1
21 | DKDNVAPRWLISPWGF-NH2 [AM(37-52)NH2 [S45W, K46L, Q50W, Y52F]] | 1.91 | 8.72
22 | DKDNVAPRSLISPWGF-NH2 [AM(37-52)NH2 [K46L, Q50W, Y52F]] | 31.6 | 7.5
23 | DKDNVAPRWMISPWGF-NH2 [AM(37-52)NH2 [S45W, K46M, Q50W, Y52F]] | 7.94 | 8.1
24 | DKFNVAPRSLISPWGF-NH2 [AM(37-52)NH2 [D39F, K46L, Q50W, Y52F]] | 25 | 7.61
25 | DKDNVAPRTWISPWGY-NH2 [AM(37-52)NH2[S45T, K46W, Q50W]] | 440 | 6.36

What follows are binders tested against T2, MBP-RAMP1 ECD-(GS)5-CTR ECD-H6 fusion protein (human, UniProt O60894 27-118; P30988 34-141, limits assumed) (assay: AlphaLISA competition vs Biotin-AC413 probe, purified AMY1 ECD fusion).
T2 construct: extracellular domain; CTR-based proteins were produced in HEK293T cells (N-glycosylated); also called RAMP1-CTR ECD; RAMP1-CTR
Method: A single representative experiment conducted with duplicate samples is shown. […] The reactions were incubated for 5 hours at room temperature to reach equilibrium, and the luminescence was measured in white 384-well plates using a BMG LABTECH's POLARstar® Omega plate reader (Ortenberg, Germany). The reaction buffer was 50 mM MOPS, pH 7.4, 150 mM NaCl, 7 mg/ml fatty acid-free BSA and the streptavidin-coated donor beads and MBP-antibody coated acceptor beads were at 15 μg/ml each. IC₅₀ values were calculated using nonlinear regression fitting of the competition curves to a three-parameter, one-site competitive binding equation in GraphPad Prism 5.0 (GraphPad Software, San Diego Calif.).

T2 sequence (O60894 other isoform, or with tags, fused parts or gaps limits assumed): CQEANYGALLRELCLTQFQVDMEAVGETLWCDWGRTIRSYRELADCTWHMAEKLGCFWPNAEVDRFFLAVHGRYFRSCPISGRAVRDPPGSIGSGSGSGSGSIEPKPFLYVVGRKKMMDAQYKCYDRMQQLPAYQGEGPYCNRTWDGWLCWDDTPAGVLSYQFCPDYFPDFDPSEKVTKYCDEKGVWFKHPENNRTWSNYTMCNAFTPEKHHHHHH

Row | Binder | IC50 [nM]
26 | DKDNVAPRWLISPWGF-NH2 [AM(37-52)NH2 [S45W, K46L, Q50W, Y52F]] | 16000

These binders were tested against T1, MBP-RAMP1 ECD-(GS)5-CLR ECD-H6 fusion … (assay: FP (anisotropy) competition: displaces FITC-Ahx-AM(37-52)NH2[S45W,Q50W] probe (7 nM) from MBP-RAMP1 ECD-(GS)5-CLR ECD-H6 (15 nM) [A-C) panel C]).
Method: as §1

Row | Binder | IC50 (read off the curve) [nM]
27 | DKDNVAPRSLISPWGY-NH2 [AM(37-52)NH2 [K46L, Q50W]] | ~100
28 | DKDNVAPRSLISPWGF-NH2 [AM(37-52)NH2 [K46L, Q50W, Y52F]] | ~100

The binders below were run against T1, MBP-RAMP1 ECD-(GS)5-CLR ECD-H6 fusion … (assay: FP (anisotropy) competition: displaces FITC-Ahx-AM(37-52)NH2[S45W,Q50W] probe (7 nM) from MBP-RAMP1 ECD-(GS)5-CLR ECD-H6 (15 nM) [D-E) panel D]).
Method: as §1

Row | Binder | IC50 (read off the curve) [nM]
29 | DKFNVAPRSLISPWGY-NH2 [AM(37-52)NH2 [D39F, K46L, Q50W]] | ~200
30 | DKDNVAPRWLISPWGF-NH2 [AM(37-52)NH2 [S45W, K46L, Q50W, Y52F]] | ~20
31 | DKFNVAPRSLISPWGF-NH2 [AM(37-52)NH2 [D39F, K46L, Q50W, Y52F]] | ~80

The binders below were run against T1, MBP-RAMP1 ECD-(GS)5-CLR ECD-H6 fusion … (assay: FP (anisotropy) competition: displaces FITC-Ahx-AM(37-52)NH2[S45W,Q50W] probe (7 nM) from MBP-RAMP1 ECD-(GS)5-CLR ECD-H6 (15 nM) [D-E) panel E]).
Method: as §1

Row | Binder | IC50 (read off the curve) [nM]
32 | DKDNVAPRWWISPWGF-NH2 [AM(37-52)NH2 [S45W, K46W, Q50W, Y52F]] | ~70
33 | DKDNVAPRWMISPWGF-NH2 [AM(37-52)NH2 [S45W, K46M, Q50W, Y52F]] | ~30
